# Data as given in PMC3114845, “Bordetella pertussis Autotransporter Vag8 Binds Human C1 Esterase Inhibitor and Confers Serum Resistance” (PLoS ONE, 2011).
# B1: purified human C1 esterase inhibitor (natural protein)
# chain: NPNATSSSSQDPESLQDRGEGKVATTVISKMLFVEPILEVSSLPTTNSTTNSATKITANTTDEPTTQPTTEPTTQPTIQPTQPTTQLPTDSPTQPTTGSFCPGPVTLCSDLESHSTEAVLGDALVDFSLKLYHAFSAMKKVETNMAFSPFSIASLLTQVLLGAGENTKTNLESILSYPKDFTCVHQALKGFTTKGVTSVSQIFHSPDLAIRDTFVNASRTLYSSSPRVLSNNSDANLELINTWVAKNTNNKISRLLDSLPSDTRLVLLNAIYLSAKWKTTFDPKKTRMEPFHFKNSVIKVPMMNSKKYPVAHFIDQTLKAKVGQLQLSHNLSLVILVPQNLKHRLEDMEQALSPSVFKAIMEKLEMSKFQPTLLTLPRIKVTTSQDMLSIMEKLEFFDFSYDLNLCGLTEDPDLQVSAMQHQTVLELTETGVEAAAASAISVARTLLVFEVQQPFLFVLWDQQHKFPVFMGRVYDPRA
# notes: also called C1inh; purified C1inh; source: bought: Advanced Research Technologies (purified human C1inh)
# Target: T1, histidine-tagged Vag8 passenger domain (residues Val40 to Leu610) (Bordetella pertussis, UniProt Q79GN7 40-610)
# T1 construct: autotransporter Vag8, Bordetella pertussis BP338 (Tohama I derivative), predicted passenger domain, residues Val40 to Leu610; Cloned with BamHI and HindIII into pET30b; also called purified Vag8 passenger; recombinant Vag8
# T1 sequence: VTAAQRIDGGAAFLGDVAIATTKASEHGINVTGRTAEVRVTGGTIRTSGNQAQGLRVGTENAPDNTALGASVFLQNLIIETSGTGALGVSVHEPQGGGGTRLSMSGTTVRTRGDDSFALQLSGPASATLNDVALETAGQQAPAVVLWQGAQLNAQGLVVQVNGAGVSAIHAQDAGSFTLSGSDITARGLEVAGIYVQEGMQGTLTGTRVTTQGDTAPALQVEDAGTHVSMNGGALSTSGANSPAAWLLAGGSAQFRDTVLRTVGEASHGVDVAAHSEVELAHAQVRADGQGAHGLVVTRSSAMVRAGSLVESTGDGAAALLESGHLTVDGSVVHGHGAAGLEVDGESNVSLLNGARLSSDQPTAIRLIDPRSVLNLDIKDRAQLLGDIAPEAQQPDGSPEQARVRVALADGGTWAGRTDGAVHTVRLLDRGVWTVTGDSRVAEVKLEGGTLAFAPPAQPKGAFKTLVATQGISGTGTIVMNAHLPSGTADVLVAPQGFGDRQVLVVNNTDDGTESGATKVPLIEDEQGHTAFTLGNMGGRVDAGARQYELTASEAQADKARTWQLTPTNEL
# Assay: ELISA; MaxiSorp plates coated with two-fold dilutions of purified passenger domain (top 5 µg/ml, PBS pH 7.4, overnight 4°C); probed 1 h at room temperature with 10 µg/ml purified human C1inh; detected with goat anti-C1inh
# Conditions: both partners purified
binder,measurement,value
B1,binding result,binds
